Patent US20140100172A1 (MALLINCKRODT, published 2014)
Like-named read-outs stand apart in the source and are kept apart here. Square brackets hold non-standard residues; d marks the D form. * marks the point of attachment. 2Nal = N[C@@H](Cc1ccc2ccccc2c1)C(=O)O; NMeR = CN[C@@H](CCCNC(=N)N)C(=O)O; Dap = NC[C@H](N)C(=O)O; nal = not defined here; 125I = [125I]*

B1: human chemokine receptor type 4 (CXCR4) (receptor, UniProt P61073 1-352, looked up)
chain: MEGISIYTSDNYTEEMGSGDYDSMKEPCFREENANFNKIFLPTIYSIIFLTGIVGNGLVILVMGYQKKLRSMTDKYRLHLSVADLLFVITLPFWAVDAVANWYFGNFLCKAVHVIYTVNLYSSVLILAFISLDRYLAIVHATNSQRPRKLLAEKVVYVGVWIPALLLTIPDFIFANVSEADDRYICDRFYPNDLWVVVFQFQHIMVGLILPGIVILSCYCIIISKLSHSKGHQKRKALKTTVILILAFFACWLPYYIGISIDSFILLEIIKQGCEFENTVHKWISITEALAFFHCCLNPILYAFLGAKFKTSAQHALTSVSRGSSLKILSKGKRGGHSSVSTESESSSFHSS
notes: whole, on cells; also called CXCR4 receptor; CXCR4 chemokine receptor

Columns and labels:
[1] = molecular target: B1; assay: competition with 125I-CPCR4 tracer on CXCR4-expressing cells
[2] = molecular target: T1, recombinant human SDF-1α (stromal cell-derived factor 1α) (human, UniProt P48061-2 22-89); assay: competitive radioligand binding on CXCR4-expressing cells
T1 construct: also called SFD-1α

[3] = molecular target: B1; assay: radioligand binding on Jurkat and CMS5/CXCR4 cells
[4] = molecular target: B1; assay: saturation radioligand binding, Jurkat and CMS5/CXCR4 cells
[5] = molecular target: B1; assay: competition with 125I-CPCR4 tracer on CXCR4-expressing cells; remark: listed apart in the source
[6] = molecular target: B1; assay: as above; remark: listed apart in the source
[7] = molecular target: B1; assay: as above; remark: listed apart in the source

## cyclo([dY]R[NMeR][2Nal]G) (also called OD3) [cyc[D-Tyr-Arg-(Me)Arg-Nal-Gly]]
[1]
  IC50: 31 nM

## B1
[2]
  binding result: binds

B2: cyc[D-Tyr-(Me)Arg-Arg-Nal-Gly] (peptide)
peptide: cyclo([dY][NMeR]R[2Nal]G)
SMILES: CN1C(=O)[C@@H](Cc2ccc(O)cc2)NC(=O)CNC(=O)[C@H](Cc2ccc3ccccc3c2)NC(=O)[C@H](CCCNC(=N)N)NC(=O)[C@@H]1CCCNC(=N)N
notes: also called OD1
[1]
  IC50: 23 nM

## cyclo([dY](125I)RR[2Nal]G) (also called radiolabeled CPCR4) [125I-CPCR4]
[3]
  Kd: 0.4 nM
[4]
  Kd: 0.3 to 0.4 nM

B3: cyc[D-Tyr-His-Arg-Nal-Gly] (peptide)
peptide: cyclo([dY]HR[2Nal]G)
SMILES: N=C(N)NCCC[C@@H]1NC(=O)[C@H](Cc2c[nH]cn2)NC(=O)[C@@H](Cc2ccc(O)cc2)NC(=O)CNC(=O)[C@H](Cc2ccc3ccccc3c2)NC1=O
[5]
  IC50: 30 nM

## cyclo([dY]RR[2Nal][Dap]G) (not fully specified (residue 5); printed as cyc[D-Tyr-Arg-Arg-Nal-Dap(FP)-Gly], also called BL 58; BL58) [cyc[D-Tyr-Arg-Arg-Nal-Dap(FP)-Gly]]
[6]
  IC50: ~1000 nM

B4: cyc[D-Tyr-Arg-Arg-nal-Ala-Gly] (peptide)
peptide: cyclo([dY]RR[nal]AG)
modifications: reading uncertain; also: printed as cyc[D-Tyr-Arg-Arg-nal-Ala-Gly]
notes: differs by nal against Nal; also called BL 40
[7]
  IC50: ~1000 nM
